The record followed here is publication PMC9741609, “A widely distributed family of eukaryotic and bacterial deubiquitinases related to herpesviral large tegument proteins” (Nature Communications, 2022).

In this experiment the target is T1, ubiquitin-PA (C-terminally propargylated ubiquitin 1-75) (human, UniProt P0CG48 1-75, C-terminal propargylamide (PA)).
T1 construct: also called Ub-PA; wildtype Ub-PA; not shown: intein (from the vector pTXB1), C-terminal, cleaved
Kind of experiment: crystal structure; covalent complex: 1.2 mM Wc-VTD1 incubated with 760 µM ubiquitin-PA for 18 h at 4 °C, unreacted proteins removed by SEC; crystals in 0.1 M BisTris propane pH 7.0, 2.0 M ammonium citrate tribasic at 20 °C. As to conditions: both partners purified. A general note: In gel filtration, larger molecules generally elute earlier.

B1: Wc-VTD1 catalytic domain (aa279-494) (enzyme)
chain: KMPEEEQDSLAAFSRIEANITQYDPLLDNAGKSACTCICLKAAEMLLEASPDQVNAGLIDDILVEGVADYNRFKVGGVVEHTSVENYELNTFELKRLEFRDVDNPFSAEGNPYAGTLDSFAKMMEKASDSKDLPKPVALVMTKSNMTITIVIRPDGKYWLFDPHGTNGKGAYIESCNTDELIKKIKEIFPKTSYPGMTEDENLGFNSFEAYAVRRS
notes: also called wcw_1294; Waddlia VTD1; source: E. coli Rosetta (DE3) pLysS, purified (HisTrap, SEC)
On to B1, for which the binding result is listed as “binds”.
